The assay addresses T1, GST fusion protein with the cytoplasmic domain of JAM (human, UniProt Q9Y624 260-299).
T1 chain (looked up): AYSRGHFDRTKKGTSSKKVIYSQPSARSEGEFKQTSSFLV
The assay can be described thus: pull-down.

B1: MBP-PDZ1/2/3–PAR-3 (domain or fragment)
chain: MVKLVQVPNDGGPLGIHVVPFSARGGRTLGLLVKRLEKGGKAEQENLFHENDCIVRINDGDLRNRRFEQAQHMFRQAMRARVIWFHVVPAANKEQYEQLSQREMNNYSPGRFSPDSHCVANRSVANNAPQALPRAPRLSQPPEQLDAHPRLPHSAHASTKPPTAPALAPPNVLSTSVGSVYNTKRVGKRLNIQLKKGTEGLGFSITSRDVTIGGSAPIYVKNILPRGAAIQDGRLKAGDRLIEVNGVDLAGKSQEEVVSLLRSTKMEGTVSLLVFRQEEAFHPREMNAEPSQMQSPKETKAEDEDIVLTPDGTREFLTFEVPLNDSGSAGLGVSVKGNRSKENHADLGIFVKSIINGGAASKDGRLRVNDQLIAVNGESLLGKANQEAMETLRRSMSTEGNKRGMIQ
The Kd is a measure of binding affinity in units of concentration. Read a high Kd as a looser complex. Consider B1, for which binding was put at a Kd of 75 nM.

B2: MBP fusion protein with NH2-terminal half of ZO-1 (domain or fragment)
chain: MSARAAAAKSTAMEETAIWEQHTVTLHRAPGFGFGIAISGGRDNPHFQSGETSIVISDVLKGGPAEGQLQENDRVAMVNGVSMDNVEHAFAVQQLRKSGKNAKITIRRKKKVQIPVSHPDPEPVSDNEDDSYDEEVHDPRAGRGALANRRSEKSWARDRSASRERSLSPRSDRRSVASSQPAKPTKVTLVKSRKNEEYGLRLASHIFVKEISQDSLAARDGNIQEGDVVLKINGTVTENMSLTDAKTLIERSKGKLKMVVQRDERATLLNVPDLSDSIHSANASERDDISEIQSLASDHSGRSHDRPPRRSQSRSPDQRSEPSDHSTQSPQQPSNGSLRSREEERMSKPGAISTPVKHVDDHPPKAVEEVTVEKNEKQTPTLPEPKPVYAQVGQPDVDLPVSPSDGALPNSAHEDGILRPSMKLVKFRKGDSVGLRLAGGNDVGIFVAGVLEDSPAAKEGLEEGDQILRVNNVDFTNIIREEAVLFLLDLPKGEEVTILAQKKKDVYRRIVESDVGDSFYIRTHFEYEKESPYGLSFNKGEVFRVVDTLYNGKLGSWLAIRIGKNHKEVERGIIPNKNRAEQLASVQYTLPKTAGGDRADFWRFRGLRSSKRNLRKSREDLSAQPVQTKFPAYERVVLREAGFLRPVTIFGPIADVAREKLAREEPDIYQIAKSEPRDAGTDHRSSGIIRLHTIKQIIDQDKHALLDVTPNAVDRLNYAQWYPIVVFLNPDSKQGVKTMRMRLCPESRKSARKLYERSHKLRKNNHHLFTTTINLNSMNDGWYGALKEAIQQQQNQLVWVSEGKADGATSDDLDLHDDRLSYLSAPGSEYSMYSTDSRHTSDYEDTDTEGGAYTDQELDETL
With B2, the Kd worked out at 110 nM.

These data come from PMC2196413 (The Journal of Cell Biology, 2001).
